Test results as given in patent US10040826.

Assays:
[1] = biological target: A244 gDΔ11 gp120 (Herpes simplex virus; HIV-1); experiment: SPR, Fab amine-coupled to the sensor surface, gp120 flowed
[2] = biological target: A244 gp120 (no modifications) (HIV-1); experiment: as above
[3] = biological target: A244 gDΔ11 gp120 (Herpes simplex virus; HIV-1); experiment: SPR
A244 Δ11 gp120 (HIV-1) [4] = experiment: SPR
[5] = biological target: A244-rgp120 (RV144 vaccine immunogen) (Herpes simplex virus; HIV-1); experiment: SPR; A32 captured on anti-Fc surface, RV144 A244-rgp120 injected at 0.5-5 µg/mL; fitted curves [lower row]
[6] = biological target: MN gp120 (no modifications) (HIV-1); experiment: Kd table; row B.MN gp120, column A32 gD-; method not given
A244 Δ11 gp120 (HIV-1) [7] = experiment: SPR blocking on immobilized A244 Δ11 gp120, mAb injected to near saturation, then RV144 vaccinee IgG; against 7B2 control
[8] = biological target: A244 gDΔ11 gp120 (Herpes simplex virus; HIV-1); experiment: Kd table; row AE.A244 gp120, column A32 gD+; method not given
[9] = biological target: 92TH023 gp120 (no modifications) (HIV-1); experiment: Kd table; row AE.92TH023 gp120, column A32 gD-; method not given
A244 Δ11 gp120 (HIV-1) [10] = experiment: SPR; A244 gp120 gD- Δ11 293T monomer batch 110608 flowed over immobilised A32; response axis in RU
[11] = biological target: MN gDΔ11 gp120 (Herpes simplex virus; HIV-1); experiment: Kd table; row B.MN gp120, column A32 gD+; method not given
A244 Δ11 gp120 (HIV-1) [12] = experiment: SPR; A244 gp120 gD- Δ11 293T monomer batch 110608 flowed over immobilised A32; ratio to ConS gp140
[13] = biological target: 92TH023 gDΔ11 gp120 (Herpes simplex virus; HIV-1); experiment: SPR, not detailed
[14] = biological target: MN gDΔ11 gp120 (Herpes simplex virus; HIV-1); experiment: SPR, not detailed
[15] = biological target: A244 gp120 (no modifications) (HIV-1); experiment: Kd table; row AE.A244 gp120, column A32 gD-; method not given
[16] = biological target: A244 gDΔ11 gp120 (Herpes simplex virus; HIV-1); experiment: SPR, mAb captured on anti-Fc surface, monomeric gp120 as analyte
[17] = biological target: A244 gp120 (no modifications) (HIV-1); experiment: as above
A244 Δ11 gp120 (HIV-1) [18] = experiment: as above
[19] = biological target: 92TH023 gDΔ11 gp120 (Herpes simplex virus; HIV-1); experiment: Kd table; row AE.92TH023 gp120, column A32 gD+; method not given
[20] = biological target: MN-rgp120 (RV144 vaccine immunogen) (Herpes simplex virus; HIV-1); experiment: SPR; A32 captured on anti-Fc surface, RV144 MN-rgp120 injected at 0.5-5 µg/mL; fitted curves
[21] = biological target: 92TH023 gp120 (no modifications) (HIV-1); experiment: Kd table; row AE.92TH023 gp120, column 697D gD-; method not given
[22] = biological target: A244 gp120 (no modifications) (HIV-1); experiment: SPR titration, binding to 697D mAb (697-30D); A244gDneg293Tmon at [5], [10], [20], [40], unit inferred; constant labelled ka1
A244 Δ11 gp120 (HIV-1) [23] = experiment: SPR titration, binding to 697D mAb; A244 gDneg D11 at [2] to [50], unit inferred
A244 Δ11 gp120 (HIV-1) [24] = experiment: SPR titration, binding to 697D mAb; A244 gDneg D11 at [2], [4], [6], [10], [25], [50], unit inferred
[25] = biological target: A244 gDΔ11 gp120 (Herpes simplex virus; HIV-1); experiment: Kd table; row AE.A244 gp120, column 697D gD+; method not given
[26] = biological target: A244 gp120 (no modifications) (HIV-1); experiment: SPR titration, binding to 697D mAb (697-30D); A244gDneg293Tmon at [5] to [40], unit inferred; constant labelled kd1
[27] = biological target: MN gDΔ11 gp120 (Herpes simplex virus; HIV-1); experiment: Kd table; row B.MN gp120, column 697D gD+; method not given
[28] = biological target: 92TH023 gDΔ11 gp120 (Herpes simplex virus; HIV-1); experiment: Kd table; row AE.92TH023 gp120, column 697D gD+; method not given
[29] = biological target: A244 gDΔ11 gp120 (Herpes simplex virus; HIV-1); experiment: SPR titration, binding to 697D mAb (697-30D); A244 gD+ monomer at [10], [20], [30], [40], unit inferred
[30] = biological target: A244-rgp120 (RV144 vaccine immunogen) (Herpes simplex virus; HIV-1); experiment: SPR; 697D captured on anti-Fc surface, RV144 A244-rgp120 injected at 5.0-100 µg/mL; fitted curves [lower row]
[31] = biological target: A244 gDΔ11 gp120 (Herpes simplex virus; HIV-1); experiment: SPR titration, binding to 697D mAb (697-30D); A244 gD+ monomer at [10] to [40], unit inferred
[32] = biological target: MN-rgp120 (RV144 vaccine immunogen) (Herpes simplex virus; HIV-1); experiment: SPR; 697D captured on anti-Fc surface, RV144 MN-rgp120 injected at 5.0-100 µg/mL; fitted curves
[33] = biological target: MN gp120 (no modifications) (HIV-1); experiment: Kd table; row B.MN gp120, column 697D gD-; method not given
[34] = biological target: A244-rgp120 (RV144 vaccine immunogen) (Herpes simplex virus; HIV-1); experiment: SPR, mAb captured on anti-Fc surface, gp120 as analyte (FIG. 28)
[35] = biological target: MN-rgp120 (RV144 vaccine immunogen) (Herpes simplex virus; HIV-1); experiment: as above
[36] = biological target: A244 gp120 (no modifications) (HIV-1); experiment: SPR titration, binding to 697D mAb (697-30D); A244gDneg293Tmon at [5] to [40], unit inferred
[37] = biological target: A244 gp120 (no modifications) (HIV-1); experiment: Kd table; row AE.A244 gp120, column 697D gD-; method not given
[38] = biological target: A244 gp120 (no modifications) (HIV-1); experiment: SPR

With 697D Fab the Kd [1] was 690 nM, the fold higher affinity than to unmodified A244 gp120 [1] was 8 fold and the fold higher ka than to A244 gp120 [1] was 10 fold. It also gave a Kd [2] of 5700 nM.

C1 mAb A32 (antibody) showed a fold higher affinity than to A244 gp120 [3] of 6 fold, a fold higher affinity than to A244 gp120 (A244 Δ11 gp120 (HIV-1) [4]) of 9 fold and a Kd [5] of 1.13 nM. For the same substance, the Kd [6] was 0.8 nM, the percent blocking of RV144 vaccinee IgG binding (A244 Δ11 gp120 (HIV-1) [7]) was 66% and the Kd [8] was 0.13 nM. For the same substance, the Kd [9] was 4.6 nM, the Req (A244 Δ11 gp120 (HIV-1) [10]) was 2290 and the Kd [11] was 4.15 nM. For the same substance, the Relative Binding Env/ConS gp140 (A244 Δ11 gp120 (HIV-1) [12]) was 5.16, the fold enhancement of binding against the unmodified protein [13] was 2 to 3 fold and the fold enhancement of binding against the unmodified protein [14] was 2 to 3 fold. It also gave a Kd [15] of 2.6 nM, a Kd [16] of 1 nM and a koff [16] of 0.000133 s⁻¹. The kon [16] was 134000 M⁻¹ s⁻¹, the Kd [17] was 6.25 nM and the koff [17] was 0.00047 s⁻¹. For the same substance, the kon [17] was 76800 M⁻¹ s⁻¹, the Kd (A244 Δ11 gp120 (HIV-1) [18]) was 0.67 nM and the koff (A244 Δ11 gp120 (HIV-1) [18]) was 0.00015 s⁻¹. The kon (A244 Δ11 gp120 (HIV-1) [18]) was 223000 M⁻¹ s⁻¹, the Kd [19] was 1.35 nM and the Kd [20] was 0.21 nM.

V2 mAb 697D (antibody) showed a Kd [21] of 1310 nM, a fold higher affinity than to A244 gp120 [3] of 10 fold and a fold higher affinity than to A244 gp120 (A244 Δ11 gp120 (HIV-1) [4]) of 10 fold. It also gave a fold tighter binding than to A244 gp120 with no modifications (A244 Δ11 gp120 (HIV-1) [4]) of 10 fold, a kon [22] of 3400 M⁻¹ s⁻¹ and a Kd (A244 Δ11 gp120 (HIV-1) [23]) of 98.7 nM. For the same substance, the koff (A244 Δ11 gp120 (HIV-1) [23]) was 0.0033 s⁻¹, the kon (A244 Δ11 gp120 (HIV-1) [24]) was 24700 M⁻¹ s⁻¹ and the Kd [25] was 180 nM. The koff [26] was 0.0063 s⁻¹, the fold enhancement of binding against the unmodified protein [13] was 2 to 3 fold and the fold enhancement of binding against the unmodified protein [14] was 2 to 3 fold. It also gave a Kd [27] of 488 nM, a Kd [28] of 734 nM and a kon [29] of 40000 M⁻¹ s⁻¹. The Kd [30] was 477 nM, the Kd [31] was 162 nM and the koff [31] was 0.0066 s⁻¹. For the same substance, the Kd [32] was 318 nM, the Kd [33] was 1070 nM and the Kd [34] was 318 nM. For the same substance, the Kd [35] was 477 nM, the Kd [16] was 218 nM and the koff [16] was 0.00524 s⁻¹. The kon [16] was 24900 M⁻¹ s⁻¹, the Kd [17] was 1470 nM and the koff [17] was 0.007 s⁻¹. It also gave a kon [17] of 4900 M⁻¹ s⁻¹, a Kd (A244 Δ11 gp120 (HIV-1) [18]) of 157 nM and a koff (A244 Δ11 gp120 (HIV-1) [18]) of 0.00518 s⁻¹. It also gave a kon (A244 Δ11 gp120 (HIV-1) [18]) of 26800 M⁻¹ s⁻¹, a Kd [36] of 1900 nM and a Kd [37] of 1000 nM.

With V2 mAb 2158 (antibody) the fold lower affinity than for A244gDΔ11 and A244Δ11 gp120 [38] was 3 fold, the Kd [16] was 3.7 nM and the koff [16] was 0.0001 s⁻¹. The kon [16] was 28700 M⁻¹ s⁻¹, the Kd [17] was 11.2 nM and the koff [17] was 0.00019 s⁻¹. The kon [17] was 16400 M⁻¹ s⁻¹, the Kd (A244 Δ11 gp120 (HIV-1) [18]) was 3.68 nM and the koff (A244 Δ11 gp120 (HIV-1) [18]) was 0.00013 s⁻¹. For the same substance, the kon (A244 Δ11 gp120 (HIV-1) [18]) was 36500 M⁻¹ s⁻¹.
